Measured values published in US10800813 (Bicycle, dated 2020).
Like-named read-outs stand apart in the source and are kept apart here. Numbered stars: 1 amine (or outer) side, 2 acyl side, 3 side chain; on linkers, the order of the positions; unused ones are H or OH. Bridge positions count the residues as written; N and C are the ends. Square brackets hold non-standard residues; d marks the D form. Ends that are not written are not given here. Ind = L-indoline-2-carboxylic acid, O=C([C@@H]1Cc2ccccc2N1[*:1])[*:2]; Bip = N[C@@H](Cc1ccc(-c2ccccc2)cc1)C(=O)O; Tpi = O=C(O)[C@@H]1Cc2c([nH]c3ccccc23)CN1; Dip = N[C@H](C(=O)O)C(c1ccccc1)c1ccccc1; TBMB = c1c(C[*:1])cc(C[*:3])cc1C[*:2]; Hyp = O=C(O)[C@@H]1C[C@@H](O)CN1; Tic = O=C(O)[C@@H]1Cc2ccccc2CN1; 4FluoPro = 4-fluoroproline; Pip = O=C(O)[C@@H]1CCCCN1; Aze = O=C(O)[C@@H]1CCN1; Aib = CC(C)(N)C(=O)O

Legend:
Assay in all cases: enzyme inhibition assay
human plasma Kallikrein [1] = target: T1, human plasma Kallikrein (human, UniProt P03952 20-638, limits assumed)
T1 construct: also called hPK; human PK

human plasma Kallikrein [2] = target: T1, human plasma Kallikrein; remark: listed apart in the source
human plasma Kallikrein [3] = target: T1, human plasma Kallikrein; remark: listed apart in the source
Rat plasma Kallikrein = target: T2, Rat plasma Kallikrein (rat, UniProt P14272 391-638, limits assumed)
T2 construct: domain: catalytic domain; also called rPK; rat PK

human plasma Kallikrein [4] = target: T1, human plasma Kallikrein; remark: listed apart in the source
human plasma Kallikrein [5] = target: T1, human plasma Kallikrein; remark: listed apart in the source

T1 sequence (P03952 20-638 limits assumed): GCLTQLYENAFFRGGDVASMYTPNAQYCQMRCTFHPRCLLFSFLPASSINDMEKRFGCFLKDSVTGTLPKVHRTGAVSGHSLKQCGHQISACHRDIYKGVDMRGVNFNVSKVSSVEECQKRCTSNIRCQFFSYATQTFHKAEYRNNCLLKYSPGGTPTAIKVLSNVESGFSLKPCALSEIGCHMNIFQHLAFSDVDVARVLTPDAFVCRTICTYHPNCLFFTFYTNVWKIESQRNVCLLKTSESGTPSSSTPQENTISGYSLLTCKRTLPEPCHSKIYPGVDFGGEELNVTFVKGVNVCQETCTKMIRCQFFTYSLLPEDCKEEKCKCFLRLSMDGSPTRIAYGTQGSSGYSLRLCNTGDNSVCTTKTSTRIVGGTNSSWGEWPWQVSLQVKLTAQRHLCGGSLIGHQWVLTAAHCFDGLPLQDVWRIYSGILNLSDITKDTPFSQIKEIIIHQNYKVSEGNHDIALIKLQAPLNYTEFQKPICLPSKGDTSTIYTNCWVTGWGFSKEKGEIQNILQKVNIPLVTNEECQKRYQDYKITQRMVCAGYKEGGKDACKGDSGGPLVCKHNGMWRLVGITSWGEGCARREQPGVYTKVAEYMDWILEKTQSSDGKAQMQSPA
T2 sequence (P14272 391-638 limits assumed): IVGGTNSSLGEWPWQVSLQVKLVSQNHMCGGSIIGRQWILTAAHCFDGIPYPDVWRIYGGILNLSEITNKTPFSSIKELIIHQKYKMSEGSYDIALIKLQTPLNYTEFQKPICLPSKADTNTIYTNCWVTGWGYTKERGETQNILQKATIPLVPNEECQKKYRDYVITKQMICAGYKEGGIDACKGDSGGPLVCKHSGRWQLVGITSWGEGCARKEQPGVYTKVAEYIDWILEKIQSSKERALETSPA

Row | Binder | Ki (human plasma Kallikrein [1]) | IC50 (Rat plasma Kallikrein) | IC50 (human plasma Kallikrein [4]) | other results
1 | Ac-CSW[Tic]ARCLHQDLC-NH2 (linker 1-7-13 via TBMB; SMILES CC(=O)N[C@H]1CSCc2cc3cc(c2)CSC[C@H](NC(=O)[C@H](CCCNC(=N)N)NC(=O)[C@H](C)NC(=O)[C@@H]2Cc4ccccc4CN2C(=O)[C@H](Cc2c[nH]c4ccccc24)NC(=O)[C@H](CO)NC1=O)C(=O)N[C@@H](CC(C)C)C(=O)N[C@@H](Cc1c[nH]cn1)C(=O)N[C@@H](CCC(N)=O)C(=O)N[C@@H](CC(=O)O)C(=O)N[C@@H](CC(C)C)C(=O)N[C@H](C(N)=O)CSC3) [Ac-(06-34-18) Tic3] | 13.5 nM |  |  | 
2 | Ac-CSW[Ind]ARCLHQDLC-NH2 (linker 1-7-13 via TBMB; SMILES CC(=O)N[C@H]1CSCc2cc3cc(c2)CSC[C@H](NC(=O)[C@H](CCCNC(=N)N)NC(=O)[C@H](C)NC(=O)[C@@H]2Cc4ccccc4N2C(=O)[C@H](Cc2c[nH]c4ccccc24)NC(=O)[C@H](CO)NC1=O)C(=O)N[C@@H](CC(C)C)C(=O)N[C@@H](Cc1c[nH]cn1)C(=O)N[C@@H](CCC(N)=O)C(=O)N[C@@H](CC(=O)O)C(=O)N[C@@H](CC(C)C)C(=O)N[C@H](C(N)=O)CSC3) [Ac-(06-34-18) Ind3] | 1.35 nM |  |  | 
3 | Ac-CSW[Aib]ARCLHQDLC-NH2 (linker 1-7-13 via TBMB; SMILES CC(=O)N[C@H]1CSCc2cc3cc(c2)CSC[C@H](NC(=O)[C@H](CCCNC(=N)N)NC(=O)[C@H](C)NC(=O)C(C)(C)NC(=O)[C@H](Cc2c[nH]c4ccccc24)NC(=O)[C@H](CO)NC1=O)C(=O)N[C@@H](CC(C)C)C(=O)N[C@@H](Cc1c[nH]cn1)C(=O)N[C@@H](CCC(N)=O)C(=O)N[C@@H](CC(=O)O)C(=O)N[C@@H](CC(C)C)C(=O)N[C@H](C(N)=O)CSC3) [Ac-(06-34-18) Aib3] | 1.2 nM |  |  | 
4 | Ac-CS[Dip]PARCLHQDLC-NH2 (linker 1-7-13 via TBMB; SMILES CC(=O)N[C@H]1CSCc2cc3cc(c2)CSC[C@H](NC(=O)[C@H](CCCNC(=N)N)NC(=O)[C@H](C)NC(=O)[C@@H]2CCCN2C(=O)[C@H](C(c2ccccc2)c2ccccc2)NC(=O)[C@H](CO)NC1=O)C(=O)N[C@@H](CC(C)C)C(=O)N[C@@H](Cc1c[nH]cn1)C(=O)N[C@@H](CCC(N)=O)C(=O)N[C@@H](CC(=O)O)C(=O)N[C@@H](CC(C)C)C(=O)N[C@H](C(N)=O)CSC3) [Ac-(06-34-18) 3,3-DPA2] |  |  |  | Ki (human plasma Kallikrein [2]): 1.5 nM
5 | Ac-CS[Tpi]PARCLHQDLC-NH2 (linker 1-7-13 via TBMB; SMILES CC(=O)N[C@H]1CSCc2cc3cc(c2)CSC[C@H](NC(=O)[C@H](CCCNC(=N)N)NC(=O)[C@H](C)NC(=O)[C@@H]2CCCN2C(=O)[C@@H]2Cc4c([nH]c5ccccc45)CN2C(=O)[C@H](CO)NC1=O)C(=O)N[C@@H](CC(C)C)C(=O)N[C@@H](Cc1c[nH]cn1)C(=O)N[C@@H](CCC(N)=O)C(=O)N[C@@H](CC(=O)O)C(=O)N[C@@H](CC(C)C)C(=O)N[C@H](C(N)=O)CSC3) [Ac-(06-34-18) NorHar2] |  |  |  | Ki (human plasma Kallikrein [2]): 24 nM
6 | Ac-CSW[Pip]ARCLHQDLC-NH2 (linker 1-7-13 via TBMB; SMILES CC(=O)N[C@H]1CSCc2cc3cc(c2)CSC[C@H](NC(=O)[C@H](CCCNC(=N)N)NC(=O)[C@H](C)NC(=O)[C@@H]2CCCCN2C(=O)[C@H](Cc2c[nH]c4ccccc24)NC(=O)[C@H](CO)NC1=O)C(=O)N[C@@H](CC(C)C)C(=O)N[C@@H](Cc1c[nH]cn1)C(=O)N[C@@H](CCC(N)=O)C(=O)N[C@@H](CC(=O)O)C(=O)N[C@@H](CC(C)C)C(=O)N[C@H](C(N)=O)CSC3) [Ac-(06-34-18) Pip3] | 0.26 nM |  |  | 
7 | Ac-CSW[Hyp]ARCLHQDLC-NH2 (linker 1-7-13 via TBMB; SMILES CC(=O)N[C@H]1CSCc2cc3cc(c2)CSC[C@H](NC(=O)[C@H](CCCNC(=N)N)NC(=O)[C@H](C)NC(=O)[C@@H]2C[C@@H](O)CN2C(=O)[C@H](Cc2c[nH]c4ccccc24)NC(=O)[C@H](CO)NC1=O)C(=O)N[C@@H](CC(C)C)C(=O)N[C@@H](Cc1c[nH]cn1)C(=O)N[C@@H](CCC(N)=O)C(=O)N[C@@H](CC(=O)O)C(=O)N[C@@H](CC(C)C)C(=O)N[C@H](C(N)=O)CSC3) [Ac-(06-34-18) HyP3] | 0.41 nM |  |  | 
8 | Ac-CSW[Aze]ARCLHQDLC-NH2 (linker 1-7-13 via TBMB; SMILES CC(=O)N[C@H]1CSCc2cc3cc(c2)CSC[C@H](NC(=O)[C@H](CCCNC(=N)N)NC(=O)[C@H](C)NC(=O)[C@@H]2CCN2C(=O)[C@H](Cc2c[nH]c4ccccc24)NC(=O)[C@H](CO)NC1=O)C(=O)N[C@@H](CC(C)C)C(=O)N[C@@H](Cc1c[nH]cn1)C(=O)N[C@@H](CCC(N)=O)C(=O)N[C@@H](CC(=O)O)C(=O)N[C@@H](CC(C)C)C(=O)N[C@H](C(N)=O)CSC3, also called Ac-06-34-18(TMB)-NH2 Aze3) [Ac-(06-34-18) Aze3] | 0.06 nM |  |  | fold increase in affinity against wildtype (human plasma Kallikrein [3]): 3 fold
9 | ACSWPARCVHQDLCA (linker 2-8-14 via TBMB; not fully specified (N-terminus, C-terminus)) [06-34-01] |  | 6.12 nM | 0.15 nM | 
10 | ACSWPARCTHQDLCA (linker 2-8-14 via TBMB; not fully specified (N-terminus, C-terminus)) [06-34-03 (01 + 02)] |  | 0.87 nM | 0.082 nM | 
11 | ACRWPARCMHQDLCA (linker 2-8-14 via TBMB; not fully specified (N-terminus, C-terminus)) [06-34-04] |  | 0.56 nM | 0.075 nM | 
12 | ACSWPAKCLHQDLCA (linker 2-8-14 via TBMB, also called WPAK peptide) [06-34-19 (01 + 05 + R/K)] |  | 4.67 nM |  | 
13 | ACRWPARCLHQDLCA (linker 2-8-14 via TBMB; not fully specified (N-terminus, C-terminus)) [06-34-05] |  | 0.62 nM | 0.076 nM | 
14 | ACSWPARCMHQDLCA (linker 2-8-14 via TBMB; not fully specified (N-terminus, C-terminus)) [06-34-17 (01 + 04)] |  | 0.44 nM | 0.073 nM | 
15 | ACRWPARCTHQDLCA (linker 2-8-14 via TBMB; not fully specified (N-terminus, C-terminus)) [06-34-02] |  | 1.09 nM | 0.16 nM | 
16 | Ac-CSW[4FluoPro]ARCLHQDLC-NH2 (linker 1-7-13 via TBMB) [Ac-(06-34-18) 4FluoPro3] | 0.24 nM |  |  | 
17 | Ac-CWASPRCLHQDLC-NH2 (linker 1-7-13 via TBMB; SMILES CC(=O)N[C@H]1CSCc2cc3cc(c2)CSC[C@H](NC(=O)[C@H](CCCNC(=N)N)NC(=O)[C@@H]2CCCN2C(=O)[C@H](CO)NC(=O)[C@H](C)NC(=O)[C@H](Cc2c[nH]c4ccccc24)NC1=O)C(=O)N[C@@H](CC(C)C)C(=O)N[C@@H](Cc1c[nH]cn1)C(=O)N[C@@H](CCC(N)=O)C(=O)N[C@@H](CC(=O)O)C(=O)N[C@@H](CC(C)C)C(=O)N[C@H](C(N)=O)CSC3) [Ac-(06-34-18) Scram 2] |  |  |  | Ki (human plasma Kallikrein [5]): 11400 nM
18 | Ac-CS[Bip]PARCLHQDLC-NH2 (linker 1-7-13 via TBMB; SMILES CC(=O)N[C@H]1CSCc2cc3cc(c2)CSC[C@H](NC(=O)[C@H](CCCNC(=N)N)NC(=O)[C@H](C)NC(=O)[C@@H]2CCCN2C(=O)[C@H](Cc2ccc(-c4ccccc4)cc2)NC(=O)[C@H](CO)NC1=O)C(=O)N[C@@H](CC(C)C)C(=O)N[C@@H](Cc1c[nH]cn1)C(=O)N[C@@H](CCC(N)=O)C(=O)N[C@@H](CC(=O)O)C(=O)N[C@@H](CC(C)C)C(=O)N[C@H](C(N)=O)CSC3) [Ac-(06-34-18) 4,4,BPal2] |  |  |  | Ki (human plasma Kallikrein [2]): 464 nM
19 | Ac-CPSAWRCLHQDLC-NH2 (linker 1-7-13 via TBMB; SMILES CC(=O)N[C@H]1CSCc2cc3cc(c2)CSC[C@H](NC(=O)[C@H](CCCNC(=N)N)NC(=O)[C@H](Cc2c[nH]c4ccccc24)NC(=O)[C@H](C)NC(=O)[C@H](CO)NC(=O)[C@@H]2CCCN2C1=O)C(=O)N[C@@H](CC(C)C)C(=O)N[C@@H](Cc1c[nH]cn1)C(=O)N[C@@H](CCC(N)=O)C(=O)N[C@@H](CC(=O)O)C(=O)N[C@@H](CC(C)C)C(=O)N[C@H](C(N)=O)CSC3) [Ac-(06-34-18) Scram 1] |  |  |  | Ki (human plasma Kallikrein [5]): 1090 nM
20 | Ac-CSW[Tpi]ARCLHQDLC-NH2 (linker 1-7-13 via TBMB; SMILES CC(=O)N[C@H]1CSCc2cc3cc(c2)CSC[C@H](NC(=O)[C@H](CCCNC(=N)N)NC(=O)[C@H](C)NC(=O)[C@@H]2Cc4c([nH]c5ccccc45)CN2C(=O)[C@H](Cc2c[nH]c4ccccc24)NC(=O)[C@H](CO)NC1=O)C(=O)N[C@@H](CC(C)C)C(=O)N[C@@H](Cc1c[nH]cn1)C(=O)N[C@@H](CCC(N)=O)C(=O)N[C@@H](CC(=O)O)C(=O)N[C@@H](CC(C)C)C(=O)N[C@H](C(N)=O)CSC3) [Ac-(06-34-18) NorHar3] | 2.99 nM |  |  | 
